From US20200040070A1 (CHEMOMAB, published 2020)

Legend:
[1] = molecular target: T1, Eotaxin 1 (CCL11) (human, UniProt P51671 24-97); experiment: SPR (Biacore T200), HCM101 immobilized on CM-1 chip, chemokine in solution; Eotaxin 1 (CCL11)
T1 construct: also called human CCL11
Procedure: (§1) The affinity constant of HCM101 was evaluated using Biacore T200. This method uses Surface Plasmon Resonance (SPR) electro-optical phenomenon to measure the binding constants and on/off rates between binding partners. HCM101 was immobilized on a surface of a CM-1 chip, and a solution of eotaxin 1 (CCL11)/MCP3 (CCL7) was passed over the surface. The changes in SPR angle were measured and enabled to determine the KD (equilibrium dissociation constant).
(§2) Biacore, an SPR based technology was used in order to examine the binding affinity of HCM101, generated by CHO cells, to other, non-CCL24 chemokines.

[2] = molecular target: MCP3 (CCL7) (UniProt P80098 24-99); experiment: SPR (Biacore T200), HCM101 immobilized on CM-1 chip, chemokine in solution; MCP3 (CCL7)
Procedure: as §1, §2

MCP3 (CCL7), sequence (P80098 24-99 limits assumed): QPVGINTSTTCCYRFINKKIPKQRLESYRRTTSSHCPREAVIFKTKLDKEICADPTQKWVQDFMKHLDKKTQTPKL

Kd [1]: 30 nM
Kd [2]: 130 nM
B1: fully humanized anti CCL24 antibody HCM101 (antibody, V domains shown)
VH: QIQLVQSGPELKKPGASVKVSCRASGYPFTNSGMNWVKQAPGKGLKWMGWINTYNGEPTYTDDFKGRFAFSLETSASTAYLQINNLRNEDTATYFCASHSYGSSYAMDNWGQGTSVTVSS
VL: DIVLTQSPDSLAVSLGERATINCKASQSVDYDGDSYMNWYQQKPGQPPKLLIYVASNLKSGIPARFSGSGSGTDFTLTISSLQPEDFATYYCQQSNEEPWTFGGGTKVEIK
notes: also called humanized version of CM101
